According to patent US12338277:

Assays:
Test in all cases: cell-based or functional assay
[1] = target: HIV-1 Env of pseudovirus 231966.c02 (HIV-1)
[2] = target: HIV-1 Env of pseudovirus 235-47 (HIV-1)
[3] = target: HIV-1 Env of pseudovirus 3365.v2.c2 (HIV-1)
[4] = target: HIV-1 Env of pseudovirus 3817.v2.c59 (HIV-1)
[5] = target: HIV-1 Env of pseudovirus 6240_08_TA5_4622 (HIV-1)
[6] = target: HIV-1 Env of pseudovirus 6535.3 (HIV-1)
[7] = target: HIV-1 Env of pseudovirus 7030102001E5(Rev-) (HIV-1)
[8] = target: HIV-1 Env of pseudovirus 89-F1_2_25 (HIV-1)
[9] = target: HIV-1 Env of pseudovirus BJOX010000.06.2 (HIV-1)
[10] = target: HIV-1 Env of pseudovirus BJOX025000.01.1 (HIV-1)
[11] = target: HIV-1 Env of pseudovirus CAP45.2.00.G3 (HIV-1)
[12] = target: HIV-1 Env of pseudovirus CNE30 (HIV-1)
[13] = target: HIV-1 Env of pseudovirus CNE5 (HIV-1)
[14] = target: HIV-1 Env of pseudovirus Ce1086_B2 (HIV-1)
[15] = target: HIV-1 Env of pseudovirus Ce1172_H1 (HIV-1)
[16] = target: HIV-1 Env of pseudovirus Ce704809221_1B3 (HIV-1)
[17] = target: HIV-1 Env of pseudovirus Du172.17 (HIV-1)
[18] = target: HIV-1 Env of pseudovirus Q842.d12 (HIV-1)
[19] = target: HIV-1 Env of pseudovirus SC422661.8 (HIV-1)
[20] = target: HIV-1 Env of pseudovirus T257-31 (HIV-1)
[21] = target: HIV-1 Env of pseudovirus WITO4160.33 (HIV-1)
[22] = target: HIV-1 Env of pseudovirus X2131_C1_85 (HIV-1)
[23] = target: HIV-1 Env of pseudovirus ZM197M.PB7 (HIV-1)
[24] = target: HIV-1 Env of pseudovirus ZM214M.PL15 (HIV-1)
[25] = target: HIV-1 envelope of pseudovirus 1054_07_TC4_1499 (HIV-1)
[26] = target: HIV-1 envelope of pseudovirus 231966.c02 (HIV-1)
[27] = target: HIV-1 envelope of pseudovirus 246F C1G (HIV-1)
[28] = target: HIV-1 envelope of pseudovirus 3415.v1.c1 (HIV-1)
[29] = target: HIV-1 envelope of pseudovirus 3817.v2.c59 (HIV-1)
[30] = target: HIV-1 envelope of pseudovirus 62357_14_03_4589 (HIV-1)
[31] = target: HIV-1 envelope of pseudovirus 6240_08_TA5_4622 (HIV-1)
[32] = target: HIV-1 envelope of pseudovirus 7030102001E5(Rev-) (HIV-1)
[33] = target: HIV-1 envelope of pseudovirus 9004SS_A3_4 (HIV-1)
[34] = target: HIV-1 envelope of pseudovirus 928-28 (HIV-1)
[35] = target: HIV-1 envelope of pseudovirus BF1266.431a (HIV-1)
[36] = target: HIV-1 envelope of pseudovirus BJOX015000.11.5 (HIV-1)
[37] = target: HIV-1 envelope of pseudovirus BJOX028000.10.3 (HIV-1)
[38] = target: HIV-1 envelope of pseudovirus CAP210.2.00.E8 (HIV-1)
[39] = target: HIV-1 envelope of pseudovirus CNE30 (HIV-1)
[40] = target: HIV-1 envelope of pseudovirus Ce0682_E4 (HIV-1)
[41] = target: HIV-1 envelope of pseudovirus Ce1086_B2 (HIV-1)
[42] = target: HIV-1 envelope of pseudovirus Ce1172_H1 (HIV-1)
[43] = target: HIV-1 envelope of pseudovirus HIV-001428-2.42 (HIV-1)
[44] = target: HIV-1 envelope of pseudovirus HIV-16845-2.22 (HIV-1)
[45] = target: HIV-1 envelope of pseudovirus Q451.e2 (HIV-1)
[46] = target: HIV-1 envelope of pseudovirus Q769.d22 (HIV-1)
[47] = target: HIV-1 envelope of pseudovirus T255-34 (HIV-1)
[48] = target: HIV-1 envelope of pseudovirus WITO4160.33 (HIV-1)
[49] = target: HIV-1 envelope of pseudovirus ZM214M.PL15 (HIV-1)
[50] = target: HIV-1 envelope spike of pseudovirus SC422661.8 (HIV-1)

Sequence of 10-996 (antibody) (VH): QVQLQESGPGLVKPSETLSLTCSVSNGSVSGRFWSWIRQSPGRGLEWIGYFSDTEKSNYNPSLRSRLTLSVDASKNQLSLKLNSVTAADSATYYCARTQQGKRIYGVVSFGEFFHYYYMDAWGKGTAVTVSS
Sequence of 10-996 (antibody) (VL): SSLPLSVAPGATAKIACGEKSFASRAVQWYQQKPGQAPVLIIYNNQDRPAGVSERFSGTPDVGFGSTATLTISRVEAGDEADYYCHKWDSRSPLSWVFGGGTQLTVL
Sequence of 10-1074 (antibody) (VH): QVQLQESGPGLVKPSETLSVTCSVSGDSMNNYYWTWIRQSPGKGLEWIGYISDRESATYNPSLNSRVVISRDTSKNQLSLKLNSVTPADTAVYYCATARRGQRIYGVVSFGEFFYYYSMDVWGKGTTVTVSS
Sequence of 10-1074 (antibody) (V domain): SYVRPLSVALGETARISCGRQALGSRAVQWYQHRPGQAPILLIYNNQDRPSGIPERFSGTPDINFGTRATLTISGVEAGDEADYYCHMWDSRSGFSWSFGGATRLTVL

## 10-996 (antibody)
[1]
  IC80 (TZM-bl neutralization): > 50 µg/mL
[2]
  IC80 (TZM-bl neutralization): 0.381 µg/mL
[3]
  IC80 (TZM-bl neutralization): 1.38 µg/mL
[4]
  IC80 (TZM-bl neutralization): 34.6 µg/mL
[5]
  IC80 (TZM-bl neutralization): 0.348 µg/mL
[6]
  IC80 (TZM-bl neutralization): 0.046 µg/mL
[7]
  IC80 (TZM-bl neutralization): 0.044 µg/mL
[8]
  IC80 (TZM-bl neutralization): > 50 µg/mL
[9]
  IC80 (TZM-bl neutralization): > 50 µg/mL
[10]
  IC80 (TZM-bl neutralization): > 50 µg/mL
[11]
  IC80 (TZM-bl neutralization): > 50 µg/mL
[12]
  IC80 (TZM-bl neutralization): 1.99 µg/mL
[13]
  IC80 (TZM-bl neutralization): > 50 µg/mL
[14]
  IC80 (TZM-bl neutralization): > 50 µg/mL
[15]
  IC80 (TZM-bl neutralization): 0.173 µg/mL
[16]
  IC80 (TZM-bl neutralization): 1.21 µg/mL
[17]
  IC80 (TZM-bl neutralization): 0.607 µg/mL
[18]
  IC80 (TZM-bl neutralization): > 50 µg/mL
[19]
  IC80 (TZM-bl neutralization): 0.627 µg/mL
[20]
  IC80 (TZM-bl neutralization): > 50 µg/mL
[21]
  IC80 (TZM-bl neutralization): 6.48 µg/mL
[22]
  IC80 (TZM-bl neutralization): 0.085 µg/mL
[23]
  IC80 (TZM-bl neutralization): > 50 µg/mL
[24]
  IC80 (TZM-bl neutralization): 3.25 µg/mL
[25]
  IC50 (TZM-bl neutralization): 0.26 µg/mL
[26]
  IC50 (TZM-bl neutralization): > 50 µg/mL
[27]
  IC50 (TZM-bl neutralization): 0.092 µg/mL
[28]
  IC50 (TZM-bl neutralization): 35.9 µg/mL
[29]
  IC50 (TZM-bl neutralization): 8.15 µg/mL
[30]
  IC50 (TZM-bl neutralization): 29.3 µg/mL
[31]
  IC50 (TZM-bl neutralization): 0.095 µg/mL
[32]
  IC50 (TZM-bl neutralization): 0.013 µg/mL
[33]
  IC50 (TZM-bl neutralization): 0.012 µg/mL
[34]
  IC50 (TZM-bl neutralization): 1.33 µg/mL
[35]
  IC50 (TZM-bl neutralization): > 50 µg/mL
[36]
  IC50 (TZM-bl neutralization): > 50 µg/mL
[37]
  IC50 (TZM-bl neutralization): > 50 µg/mL
[38]
  IC50 (TZM-bl neutralization): 24.8 µg/mL
[39]
  IC50 (TZM-bl neutralization): 0.614 µg/mL
[40]
  IC50 (TZM-bl neutralization): > 50 µg/mL
[41]
  IC50 (TZM-bl neutralization): > 50 µg/mL
[42]
  IC50 (TZM-bl neutralization): 0.058 µg/mL
[43]
  IC50 (TZM-bl neutralization): 0.04 µg/mL
[44]
  IC50 (TZM-bl neutralization): 1.32 µg/mL
[45]
  IC50 (TZM-bl neutralization): > 50 µg/mL
[46]
  IC50 (TZM-bl neutralization): > 50 µg/mL
[47]
  IC50 (TZM-bl neutralization): 28.4 µg/mL
[48]
  IC50 (TZM-bl neutralization): 0.538 µg/mL
[49]
  IC50 (TZM-bl neutralization): 0.413 µg/mL
[50]
  IC50 (TZM-bl neutralization assay): 0.255 µg/mL
  IC80 (TZM-bl neutralization assay): 0.845 µg/mL

## 10-1074 (antibody)
[1]
  IC80 (TZM-bl neutralization): > 50 µg/mL
[2]
  IC80 (TZM-bl neutralization): 0.163 µg/mL
[3]
  IC80 (TZM-bl neutralization): 0.45 µg/mL
[4]
  IC80 (TZM-bl neutralization): 14.9 µg/mL
[5]
  IC80 (TZM-bl neutralization): 0.306 µg/mL
[6]
  IC80 (TZM-bl neutralization): 0.026 µg/mL
[7]
  IC80 (TZM-bl neutralization): 0.021 µg/mL
[8]
  IC80 (TZM-bl neutralization): > 50 µg/mL
[9]
  IC80 (TZM-bl neutralization): > 50 µg/mL
[10]
  IC80 (TZM-bl neutralization): > 50 µg/mL
[11]
  IC80 (TZM-bl neutralization): > 50 µg/mL
[12]
  IC80 (TZM-bl neutralization): 1.2 µg/mL
[13]
  IC80 (TZM-bl neutralization): > 50 µg/mL
[14]
  IC80 (TZM-bl neutralization): > 50 µg/mL
[15]
  IC80 (TZM-bl neutralization): 0.166 µg/mL
[16]
  IC80 (TZM-bl neutralization): 0.696 µg/mL
[17]
  IC80 (TZM-bl neutralization): 0.43 µg/mL
[18]
  IC80 (TZM-bl neutralization): > 50 µg/mL
[19]
  IC80 (TZM-bl neutralization): 0.418 µg/mL
[20]
  IC80 (TZM-bl neutralization): > 50 µg/mL
[21]
  IC80 (TZM-bl neutralization): 2.11 µg/mL
[22]
  IC80 (TZM-bl neutralization): 0.064 µg/mL
[23]
  IC80 (TZM-bl neutralization): > 50 µg/mL
[24]
  IC80 (TZM-bl neutralization): 2.37 µg/mL
[25]
  IC50 (TZM-bl neutralization): 0.129 µg/mL
[26]
  IC50 (TZM-bl neutralization): > 50 µg/mL
[27]
  IC50 (TZM-bl neutralization): 0.022 µg/mL
[28]
  IC50 (TZM-bl neutralization): > 50 µg/mL
[29]
  IC50 (TZM-bl neutralization): 3.15 µg/mL
[30]
  IC50 (TZM-bl neutralization): > 50 µg/mL
[31]
  IC50 (TZM-bl neutralization): 0.068 µg/mL
[32]
  IC50 (TZM-bl neutralization): 0.006 µg/mL
[33]
  IC50 (TZM-bl neutralization): 0.011 µg/mL
[34]
  IC50 (TZM-bl neutralization): 0.847 µg/mL
[35]
  IC50 (TZM-bl neutralization): > 50 µg/mL
[36]
  IC50 (TZM-bl neutralization): > 50 µg/mL
[37]
  IC50 (TZM-bl neutralization): > 50 µg/mL
[38]
  IC50 (TZM-bl neutralization): > 50 µg/mL
[39]
  IC50 (TZM-bl neutralization): 0.363 µg/mL
[40]
  IC50 (TZM-bl neutralization): > 50 µg/mL
[41]
  IC50 (TZM-bl neutralization): > 50 µg/mL
[42]
  IC50 (TZM-bl neutralization): 0.047 µg/mL
[43]
  IC50 (TZM-bl neutralization): 0.044 µg/mL
[44]
  IC50 (TZM-bl neutralization): 1.17 µg/mL
[45]
  IC50 (TZM-bl neutralization): > 50 µg/mL
[46]
  IC50 (TZM-bl neutralization): > 50 µg/mL
[47]
  IC50 (TZM-bl neutralization): > 50 µg/mL
[48]
  IC50 (TZM-bl neutralization): 0.185 µg/mL
[49]
  IC50 (TZM-bl neutralization): 0.174 µg/mL
[50]
  IC50 (TZM-bl neutralization assay): 0.145 µg/mL
  IC80 (TZM-bl neutralization assay): 0.392 µg/mL
